Legend:
[1] = target: T1, TGFβR2.B3.F8 I-OnuI HE variant (HEK 293T expression) (Artificial Sequence (parent Ophiostoma …)); test: cell_activity; rate of generating iRFP-positive cells; chromosomal reporter in HEK 293T
T1 chain: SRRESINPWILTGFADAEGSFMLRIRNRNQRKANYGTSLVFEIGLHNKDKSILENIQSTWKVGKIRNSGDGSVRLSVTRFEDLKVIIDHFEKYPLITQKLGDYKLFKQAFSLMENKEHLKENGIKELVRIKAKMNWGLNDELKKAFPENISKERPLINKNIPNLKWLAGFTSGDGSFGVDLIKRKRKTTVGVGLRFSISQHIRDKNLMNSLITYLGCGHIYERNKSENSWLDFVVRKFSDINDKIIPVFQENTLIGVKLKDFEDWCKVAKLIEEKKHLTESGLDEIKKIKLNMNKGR
Experimental: The activity of reprogrammed I-OnuI HEs that target exon 6 of the TGFβR2 gene was measured using a chromosomally integrated fluorescent reporter system (Certo et. al., 2011). Fully reprogrammed I-OnuI HEs that bind and cleave the TGFβR2 target sequence (SEQ ID NO: 11) were cloned into mammalian expression plasmids and then individually transfected into a HEK 293T […] cell line that contained the TGFβR2 target sequence upstream of an out-of-frame gene encoding the fluorescent iRFP protein. Cleavage of the embedded target site by the HE and the accumulation of indels following DNA repair via the non-homologous end joining (NHEJ) pathway results in approximately one out of three repaired loci placing the fluorescent reporter gene back “in-frame”. The percentage of iRFP fluorescing HEK 293T cells is therefore used a readout of endonuclease activity at the chromosomally embedded target sequence. […] FIG. 3 (top graph).
A secondary I-OnuI variant library was next generated by performing random mutagenesis on the TGFβR2.B3 HE variant (e.g., SEQ ID NO: 6). Display-based flow sorting was performed under more stringent cleavage conditions in an effort to isolate variants with improved catalytic efficiency. […] FIG. 3 (bottom graph).

[2] = target: T2, TGFβR2.B3.F8 I-OnuI HE variant (yeast surface display) (Artificial Sequence (parent Ophiostoma …)); test: flow; sub-nanomolar affinity stated; yeast surface affinity titration, exact value only in figure; conditions: tags: yeast surface display
T2 chain: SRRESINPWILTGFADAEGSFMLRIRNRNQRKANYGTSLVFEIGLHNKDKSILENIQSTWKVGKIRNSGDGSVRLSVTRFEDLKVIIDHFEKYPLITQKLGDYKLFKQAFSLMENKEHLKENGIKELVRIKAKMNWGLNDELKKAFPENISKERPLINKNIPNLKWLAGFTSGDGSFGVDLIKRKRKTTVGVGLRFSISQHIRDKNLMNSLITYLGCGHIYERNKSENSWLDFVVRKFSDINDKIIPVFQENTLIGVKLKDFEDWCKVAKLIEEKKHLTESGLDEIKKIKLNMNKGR

B1: TGFβR2 exon 6 I-OnuI HE variant target site (dsDNA)
DNA 1: CGACCAGAAATTCCCAGCTTCT
DNA 2: AGAAGCTGGGAATTTCTGGTCG
Question: With B1 as the binder, how does the activity [1] read?
Answer: ~4 fold vs TGFβR2.B3

Question: What about the Kd [2] of the same binder?
Answer: < 1 nM
